Laboratory results taken from patent US20240025984A1 (FLUX THERAPEUTICS, published 2024).

Legend:
Assay in all cases: cell-based or functional assay
[1] = molecular target: T1, PYDC2-nanoluc-alfa-tag-fusion
T1 chain: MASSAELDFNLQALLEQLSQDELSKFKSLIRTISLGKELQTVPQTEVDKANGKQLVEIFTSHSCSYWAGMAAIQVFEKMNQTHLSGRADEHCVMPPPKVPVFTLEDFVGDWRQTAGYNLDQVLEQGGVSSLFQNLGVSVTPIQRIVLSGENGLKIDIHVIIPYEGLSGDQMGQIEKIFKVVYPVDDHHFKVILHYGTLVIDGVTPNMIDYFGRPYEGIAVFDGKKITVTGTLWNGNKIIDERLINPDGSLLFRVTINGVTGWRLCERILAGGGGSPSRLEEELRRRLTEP

[2] = molecular target: T2, CSTB-nanoluc-alfa-tag-fusion
T2 chain: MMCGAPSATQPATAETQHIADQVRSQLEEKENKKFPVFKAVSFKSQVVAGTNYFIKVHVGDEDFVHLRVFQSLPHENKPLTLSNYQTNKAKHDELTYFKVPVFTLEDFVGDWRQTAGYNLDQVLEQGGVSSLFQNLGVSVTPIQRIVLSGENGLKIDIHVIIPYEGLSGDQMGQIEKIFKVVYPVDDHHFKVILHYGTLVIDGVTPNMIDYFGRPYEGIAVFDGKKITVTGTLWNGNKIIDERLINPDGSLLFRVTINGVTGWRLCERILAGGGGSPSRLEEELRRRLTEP

[3] = molecular target: T3, SYNGAP1-nanoluc-alfa-tag-fusion
T3 chain: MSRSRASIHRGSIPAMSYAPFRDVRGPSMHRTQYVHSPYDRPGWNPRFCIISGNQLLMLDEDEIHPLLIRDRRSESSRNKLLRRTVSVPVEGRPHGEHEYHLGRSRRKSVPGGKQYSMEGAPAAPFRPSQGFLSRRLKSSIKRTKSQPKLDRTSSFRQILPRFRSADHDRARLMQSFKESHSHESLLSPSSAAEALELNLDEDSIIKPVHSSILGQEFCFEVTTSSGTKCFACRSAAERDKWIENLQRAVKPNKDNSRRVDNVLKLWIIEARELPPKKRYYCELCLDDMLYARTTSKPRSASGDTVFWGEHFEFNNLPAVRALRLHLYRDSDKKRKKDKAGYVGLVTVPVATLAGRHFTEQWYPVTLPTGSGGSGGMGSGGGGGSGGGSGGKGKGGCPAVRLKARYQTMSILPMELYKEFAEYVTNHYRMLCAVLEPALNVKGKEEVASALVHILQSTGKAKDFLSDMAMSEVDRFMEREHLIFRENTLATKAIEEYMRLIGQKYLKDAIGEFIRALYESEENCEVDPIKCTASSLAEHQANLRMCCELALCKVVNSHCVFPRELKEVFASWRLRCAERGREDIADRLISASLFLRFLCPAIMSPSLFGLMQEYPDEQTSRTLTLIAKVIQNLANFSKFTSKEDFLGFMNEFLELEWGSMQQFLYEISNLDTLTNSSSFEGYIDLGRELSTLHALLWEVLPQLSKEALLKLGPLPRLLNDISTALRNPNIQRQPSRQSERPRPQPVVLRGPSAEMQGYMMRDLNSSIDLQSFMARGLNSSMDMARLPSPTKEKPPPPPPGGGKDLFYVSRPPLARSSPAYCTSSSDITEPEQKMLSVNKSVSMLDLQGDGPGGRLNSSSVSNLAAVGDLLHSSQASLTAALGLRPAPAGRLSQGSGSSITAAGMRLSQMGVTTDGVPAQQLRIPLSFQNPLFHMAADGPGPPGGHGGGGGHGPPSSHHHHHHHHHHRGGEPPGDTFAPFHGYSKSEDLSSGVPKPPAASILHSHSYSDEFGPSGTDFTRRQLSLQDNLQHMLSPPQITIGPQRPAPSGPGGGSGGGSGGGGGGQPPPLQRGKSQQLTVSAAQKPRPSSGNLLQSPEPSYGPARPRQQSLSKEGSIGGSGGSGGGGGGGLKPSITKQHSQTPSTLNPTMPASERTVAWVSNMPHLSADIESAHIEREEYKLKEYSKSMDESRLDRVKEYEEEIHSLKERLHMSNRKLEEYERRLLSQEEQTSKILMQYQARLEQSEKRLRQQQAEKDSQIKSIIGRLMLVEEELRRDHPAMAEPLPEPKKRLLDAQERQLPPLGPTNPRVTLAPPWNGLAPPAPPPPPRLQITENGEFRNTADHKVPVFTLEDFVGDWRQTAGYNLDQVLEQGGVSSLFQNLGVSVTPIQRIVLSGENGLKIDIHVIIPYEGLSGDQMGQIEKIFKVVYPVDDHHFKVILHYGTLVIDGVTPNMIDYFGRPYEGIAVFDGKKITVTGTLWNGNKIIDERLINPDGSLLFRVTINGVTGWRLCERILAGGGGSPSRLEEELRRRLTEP

[4] = molecular target: Shank3-nanoluc-alfa-tag-fusion (Homo sapiens (Human), UniProt Q9BYB0 76-1806)
[5] = molecular target: T4, PCBD1-nanoluc-alfa-tag-fusion
T4 chain: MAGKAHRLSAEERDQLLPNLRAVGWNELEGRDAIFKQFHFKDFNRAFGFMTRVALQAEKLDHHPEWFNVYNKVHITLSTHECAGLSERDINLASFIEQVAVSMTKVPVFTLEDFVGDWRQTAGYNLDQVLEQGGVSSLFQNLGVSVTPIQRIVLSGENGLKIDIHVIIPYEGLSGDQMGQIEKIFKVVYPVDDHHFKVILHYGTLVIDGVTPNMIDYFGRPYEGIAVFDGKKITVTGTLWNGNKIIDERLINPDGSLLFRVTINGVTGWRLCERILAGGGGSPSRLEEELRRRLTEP

B1: FireflyLuciferase-P2A-a_alfatag_nano-Cezanne (other)
chain: MEDAKNIKKGPAPFYPLEDGTAGEQLHKAMKRYALVPGTIAFTDAHIEVDITYAEYFEMSVRLAEAMKRYGLNTNHRIVVCSENSLQFFMPVLGALFIGVAVAPANDIYNERELLNSMGISQPTVVFVSKKGLQKILNVQKKLPIIQKIIIMDSKTDYQGFQSMYTFVTSHLPPGFNEYDFVPESFDRDKTIALIMNSSGSTGLPKGVALPHRTACVRFSHARDPIFGNQIIPDTAILSVVPFHHGFGMFTTLGYLICGFRVVLMYRFEEELFLRSLQDYKIQSALLVPTLFSFFAKSTLIDKYDLSNLHEIASGGAPLSKEVGEAVAKRFHLPGIRQGYGLTETTSAILITPEGDDKPGAVGKVVPFFEAKVVDLDTGKTLGVNQRGELCVRGPMIMSGYVNNPEATNALIDKDGWLHSGDIAYWDEDEHFFIVDRLKSLIKYKGYQVAPAELESILLQHPNIFDAGVAGLPDDDAGELPAAVVVLEHGKTMTEKEIVDYVASQVTTAKKLRGGVVFVDEVPKGLTGKLDARKIREILIKAKKGGKIAVTRLKGSGATNFSLLKQAGDVEENPGPRSGTGSSGEVQLQESGGGLVQPGGSLRLSCTASGVTISALNAMAMGWYRQAPGERRVMVAAVSERGNAMYRESVQGRFTVTRDFTNKMVSLQMDNLKPEDTAVYYCHVLEDRVDSFHDYWGQGTQVTVSSGAPGSGPPSFSEGSGGSRTPEKGFSDREPTRPPRPILQRQDDIVQEKRLSRGISHASSSIVSLARSHVSSNGGGGGSNEHPLEMPICAFQLPDLTVYNEDFRSFIERDLIEQSMLVALEQAGRLNWWVSVDPTSQRLLPLATTGDGNCLLHAASLGMWGFHDRDLMLRKALYALMEKGVEKEALKRRWRWQQTQQNKESGLVYTEDEWQKEWNELIKLASSEPRMHLGTNGANCGGVESSEEPVYESLEEFHVFVLAHVLRRPIVVVADTMLRDSGGEAFAPIPFGGIYLPLEVPASQCHRSPLVLAYDQAHFSALVSMEQKENTKEQAVIPLTDSEYKLLPLHFAVDPGKGWEWGKDDSDNVRLASVILSLEVKLHLLHSYMNVKWIPLSSDAQAPLAQ
fold increase in PYDC2 protein expression (NLuc signal normalised to firefly luciferase signal) [1]: 2.64 fold
fold increase in CSTB protein expression (NLuc signal normalised to firefly luciferase signal) [2]: 1.61 fold
fold increase in SYNGAP1 protein expression relative to the control (NLuc signal normalised to firefly luciferase signal) [3]: 3.1 fold
fold increase in SHANK3 protein expression relative to the control (NLuc signal normalised to firefly luciferase signal) [4]: 2.4 fold
fold increase in PCBD1 protein expression (NLuc signal normalised to firefly luciferase signal) [5]: 1.13 fold
